Assay results taken from patent US20210139574A1 (UCB, published 2021).
Values belong to the binder of their own block, whether it stands above or below them. Square brackets hold non-standard residues; d marks the D form. Ends that are not written are not given here. Tyr(3-NO2) = N[C@@H](Cc1ccc(O)c([N+](=O)[O-])c1)C(=O)O; pS = N[C@@H](COP(=O)(O)O)C(=O)O

B2: Tau-binding humanised antibody having the light chain of SEQ ID NO: 17 and the heavy chain of SEQ ID NO: 20 (antibody, human IgG4 S228P, kappa)
light: DIQMTQSPSSLSASVGDRVTITCQASQSVSSYLAWYQQKPGKAPKLLIYAASYLASGVPSRFSGSGSGTDFTLTISSLQPEDFATYYCQQGYTRTDIDNTFGGGTKVEIKRTVAAPSVFIFPPSDEQLKSGTASVVCLLNNFYPREAKVQWKVDNALQSGNSQESVTEQDSKDSTYSLSSTLTLSKADYEKHKVYACEVTHQGLSSPVTKSFNRGEC
heavy: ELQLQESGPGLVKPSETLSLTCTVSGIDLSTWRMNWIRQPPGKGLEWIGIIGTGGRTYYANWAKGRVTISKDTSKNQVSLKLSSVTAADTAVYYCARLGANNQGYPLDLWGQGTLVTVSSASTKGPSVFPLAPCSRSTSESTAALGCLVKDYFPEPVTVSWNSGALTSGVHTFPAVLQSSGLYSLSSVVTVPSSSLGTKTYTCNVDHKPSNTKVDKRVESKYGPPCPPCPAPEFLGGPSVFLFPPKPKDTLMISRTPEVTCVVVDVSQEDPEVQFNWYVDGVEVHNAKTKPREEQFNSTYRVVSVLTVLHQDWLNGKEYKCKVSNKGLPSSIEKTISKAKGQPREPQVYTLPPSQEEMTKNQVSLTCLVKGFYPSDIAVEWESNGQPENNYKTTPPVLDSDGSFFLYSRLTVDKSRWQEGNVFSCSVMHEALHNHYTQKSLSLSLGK

Experiments:
[1] = target: B2; test: SPR competition: no significant inhibition of L17H20 binding to immobilised HEK Tau isoform-2
Text: Recombinant Tau isoform-2 monomer (amino acids 1-441), expressed and purified from HEK cells, and insoluble Tau protein in the form of a paired helical filament preparation isolated from Alzheimer's disease patient brain (AD-PHF), were amine immobilized onto the CM5 chip using a Biacore 3000 instrument and HBS-EP (GE Healthcare) as running buffer. The former were amine coupled to flow cells 2 and 4 respectively following activation of the carboxymethyl dextran surface these and reference flow cells by injection of 70 μl of a fresh mixture of 50 mM N-hydroxysuccimide and 200 mM 1-ethyl-3-(3-dimethylaminopropyl)-carbodiimide at a flow rate of 10 μl/min. Immobilization of tau monomer was achieved by injecting 160 μl at 50 μg/ml in 10 mM acetate pH 5.0 buffer, whereas AD-PHF was immobilized by injecting twenty 160 μl aliquots at 2 μg/ml in 10 mM acetic acid (pH3.0). […]
Epitope mapping was carried out by pre-incubating solutions of a Tau-binding humanised antibody having the light chain of SEQ ID NO: 17 and the heavy chain of SEQ ID NO: 20 (L17H20) and test peptide or buffer controls, prepared in running buffer at 200 nM and 5000 nM respectively. […] Response units of antibody binding were recorded at report points taken 15 sec after the end of each injection as the difference between values of test and reference flow cells. […]

[2] = target: T1, Tau seeds: sonicated human insoluble Tau from patients with progressive supranuclear palsy (PSP-PHF, fraction … (human, UniProt P10636-8 2-441, limits assumed)); test: cell-based or functional assay
T1 sequence (P10636 other isoform, or with tags, fused parts or gaps limits assumed): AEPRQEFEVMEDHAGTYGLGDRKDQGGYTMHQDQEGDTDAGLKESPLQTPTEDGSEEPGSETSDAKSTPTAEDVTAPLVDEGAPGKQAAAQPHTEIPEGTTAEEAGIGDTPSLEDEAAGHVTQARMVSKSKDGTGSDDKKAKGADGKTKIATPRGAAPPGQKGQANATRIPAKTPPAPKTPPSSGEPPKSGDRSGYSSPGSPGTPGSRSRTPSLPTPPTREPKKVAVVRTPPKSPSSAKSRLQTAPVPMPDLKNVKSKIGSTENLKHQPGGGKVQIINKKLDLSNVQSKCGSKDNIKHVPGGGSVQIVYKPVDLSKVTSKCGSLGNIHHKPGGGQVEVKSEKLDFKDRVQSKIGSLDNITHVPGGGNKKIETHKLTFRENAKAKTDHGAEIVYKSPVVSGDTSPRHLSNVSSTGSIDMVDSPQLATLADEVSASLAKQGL

[3] = target: T2, Tau seeds: sonicated human insoluble Tau from patients with Alzheimer's disease (AD-PHF, fraction 8) (human, UniProt P10636-8 2-441, limits assumed); test: cell-based or functional assay
T2 sequence (P10636 other isoform, or with tags, fused parts or gaps limits assumed): as above

[4] = target: Tau seeds: sonicated human insoluble Tau from patients with frontotemporal dementia (FTD-PHF) (human, UniProt P10636-8 2-441, limits assumed); test: cell-based or functional assay
Chain of Tau seeds: sonicated human insoluble Tau from patients with frontotemporal dementia (FTD-PHF) (P10636 other isoform, or with tags, fused parts or gaps limits assumed): as above

[5] = target: T3, Tau seeds: brain fraction from transgenic mice expressing human Tau P301L (human, UniProt P10636-8 1-441, limits assumed); test: cell-based or functional assay
T3 sequence (P10636 other isoform, or with tags, fused parts or gaps P301L P301L limits assumed): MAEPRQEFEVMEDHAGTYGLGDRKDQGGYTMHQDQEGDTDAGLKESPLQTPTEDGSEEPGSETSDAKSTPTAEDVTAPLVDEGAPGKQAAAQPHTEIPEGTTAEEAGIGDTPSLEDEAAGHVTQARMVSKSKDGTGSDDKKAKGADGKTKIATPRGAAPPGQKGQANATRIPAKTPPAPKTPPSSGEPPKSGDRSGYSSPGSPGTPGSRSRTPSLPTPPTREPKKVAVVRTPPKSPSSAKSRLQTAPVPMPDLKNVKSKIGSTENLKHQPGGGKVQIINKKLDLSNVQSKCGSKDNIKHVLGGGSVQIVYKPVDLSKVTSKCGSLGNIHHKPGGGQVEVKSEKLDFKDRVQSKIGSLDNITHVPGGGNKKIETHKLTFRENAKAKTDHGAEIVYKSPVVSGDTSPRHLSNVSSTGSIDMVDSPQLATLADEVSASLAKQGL

[6] = target: T1, Tau seeds: sonicated human insoluble …; test: cell-based or functional assay; remark: listed apart in the source
[7] = target: T2, Tau seeds: sonicated human insoluble …; test: cell-based or functional assay; remark: listed apart in the source
[8] = target: T3, Tau seeds: brain fraction from …; test: cell-based or functional assay; remark: listed apart in the source
[9] = target: T4, insoluble Tau protein preparation from Alzheimer's disease patients (AD-PHF), immobilised for Biacore (human, UniProt P10636-8 2-441, limits assumed); test: SPR (Biacore T200), AD-PHF (fraction 11) amine-immobilised on CM5, mFab as analyte
T4 construct: also called AD-PHF, fraction 11; Tau PHF fibrils from Alzheimer's disease patients
T4 sequence (P10636 other isoform, or with tags, fused parts or gaps limits assumed): as the sequence (P10636 other isoform, or with tags, fused parts or gaps limits assumed) above
Description: (§1) Selected monoclonal Fab fragments (mFab) were prepared from murinised mAB 1 antibody with light chain of SEQ ID No.: 58 and heavy chain of SEQ ID No.: 59 using the Pierce Ficin cleavage kit (Cat. No. 44980, Thermo Scientific) according to the protocol of the manufacturer. Absorption at 280 nm was used to determine the concentration of the Fab stock solutions for the Biacore analysis. An insoluble Tau protein preparation from Alzheimer's disease patients (AD-PHF, fraction 11), the HEK-derived Tau isoform-2 monomers (amino acids 1-441), and the isoform-2 monomers expressed in E. coli were amine immobilized onto the CM5 chip, and binding of anti-Tau mFabs was measured with the Biacore T200 instrument. The buffer HBS-EP from GE Healthcare was used for immobilizations apart from the AD-PHF for which 10 mM acetic acid (pH3.0) was used. The HBS-EP+ buffer was supplemented with 300 mM NaCl and 1.25% CM-Dextran (Sigma) and used as the assay buffer. While flow cell (Fc) 1 was used as a reference, the following RU values were obtained for Fc2-4: 44 RU with 5 ug/ml E. coli Tau, 56 RU with 5 ug/m HEK Tau, and 500 RU with a 1:20 diluted solution of the AD-PHF material. Two 60 s cycles of 10 mM Glycine (pH1.7) were used for regeneration. Flow rates of 10 ul/min were used for immobilization and regeneration while a 30 ul/min flow rate was used for analyte binding. For AD-PHF, multiple manual injections were applied to reach 500 RU, including EDC/NHS and EtoA capping. Five start-up cycles and 12 cycles per mFab sample or buffer control were applied, using 90 uls analyte injections for either 180 s or 300 s for dissociation. 11 1:3 dilutions of a 600 nM solution plus buffer were used for each mFab.

[10] = target: T5, HEK-derived Tau isoform-2 monomers (amino acids 1-441) (human, UniProt P10636 1-758); test: SPR (Biacore T200), Tau amine-immobilised on CM5, mFab as analyte
T5 construct: Expressed in Expi293F cells, N-terminal 10His-TEV tag removed with TEV protease; phosphorylation state not described; also called HEK iso-2; HEK Tau
T5 sequence (P10636 other isoform, or with tags, fused parts or gaps): as the sequence (P10636 other isoform, or with tags, fused parts or gaps P301L P301L limits assumed) above, with L301P counted along it
Description: as §1, with “For AD-PHF, multiple manual injections were applied to reach 500 RU, including EDC/NHS and EtoA capping. Five start-up cycles and 12 cycles per mFab sample or buffer control were applied, using 90 uls analyte injections for either 180 s or 300 s for dissociation. 11 1:3 dilutions of a 600 nM solution plus buffer were used for each mFab.” left out

Binder: [Tyr(3-NO2)][pS][pS]PG [T197H test peptide (nY pS pS P G)]
- binding result [1]: no binding (tested: 5000 nM peptide)

B1: Tau-binding antibody having the light chain of SEQ ID No.: 17 and the heavy chain of SEQ ID No.:23 (antibody, human IgG1, kappa)
light: DIQMTQSPSSLSASVGDRVTITCQASQSVSSYLAWYQQKPGKAPKLLIYAASYLASGVPSRFSGSGSGTDFTLTISSLQPEDFATYYCQQGYTRTDIDNTFGGGTKVEIKRTVAAPSVFIFPPSDEQLKSGTASVVCLLNNFYPREAKVQWKVDNALQSGNSQESVTEQDSKDSTYSLSSTLTLSKADYEKHKVYACEVTHQGLSSPVTKSFNRGEC
heavy: not shown
- Imax (maximal efficacy at 300 nM), cellular Tau aggregation assay [2]: 49%

Binder: B2
- IC50, cellular Tau aggregation assay [2]: 42 nM
- Imax (maximal efficacy at 300 nM), cellular Tau aggregation assay [2]: 65%
- IC50, cellular Tau aggregation assay [3]: 2 nM
- Imax (maximal efficacy at 300 nM), cellular Tau aggregation assay [3]: 85%
- IC50, cellular Tau aggregation assay [4]: 1 nM
- Imax (maximal efficacy at 300 nM), cellular Tau aggregation assay [4]: 79%

B5: AB1 having a murinised VL of SEQ ID NO: 9 and a murinised VH of SEQ ID NO.: 10 (antibody, V domains shown)
VH: QVQLKESGPGLVAPSQSLSITCTVSGIDLSTWRMNWVRQPPGKGLEWIGIIGTGGRTYYANWAKGRFSISKDSTQVFLKMNSLQTEDTATYFCARLGANNNGYPLDLWGAGTTVTVSS
VL: DVVMTQSPASLAVSLGQRATISCQASQSVSSYLAWYQQKPGQPPKLLIYAASYLASGVPSRFKGSGSGTEFTLNIHPVEEEDAATYYCQQGYTRTDIDNTFGGGTKLEIK
- Imax (maximal efficacy at 300 nM), cellular Tau aggregation assay [2]: 54%
- IC50, cellular Tau aggregation assay [3]: 10 nM
- Imax (maximal efficacy at 300 nM), cellular Tau aggregation assay [3]: 79%
- IC50, cellular Tau aggregation assay [4]: 1 nM
- Imax (maximal efficacy at 300 nM), cellular Tau aggregation assay [4]: 81%
- IC50, cellular Tau aggregation assay [5]: 9 nM
- Imax (maximal efficacy at 300 nM), cellular Tau aggregation assay [5]: 81%
- IC50, cellular Tau aggregation assay (n=3) [6]: 70 nM
- IC50, cellular Tau aggregation assay (n=3) [7]: 27 nM
- IC50, cellular Tau aggregation assay (n=2) [8]: 15 nM

Continued, values first:

- Imax (maximal efficacy at 300 nM), cellular Tau aggregation assay [2]: 47%
B3: Tau-binding antibody having the light chain of SEQ ID No.: 17 and the heavy chain of SEQ ID No.:24 (antibody, human IgG1, kappa)
light: DIQMTQSPSSLSASVGDRVTITCQASQSVSSYLAWYQQKPGKAPKLLIYAASYLASGVPSRFSGSGSGTDFTLTISSLQPEDFATYYCQQGYTRTDIDNTFGGGTKVEIKRTVAAPSVFIFPPSDEQLKSGTASVVCLLNNFYPREAKVQWKVDNALQSGNSQESVTEQDSKDSTYSLSSTLTLSKADYEKHKVYACEVTHQGLSSPVTKSFNRGEC
heavy: not shown

- IC50, cellular Tau aggregation assay [2]: 66 nM
- Imax (maximal efficacy at 300 nM), cellular Tau aggregation assay [2]: 47%
B4: Tau-binding antibody having the light chain of SEQ ID No.: 17 and the heavy chain of SEQ ID No.:21 (antibody, human IgG4 S228P, kappa)
light: DIQMTQSPSSLSASVGDRVTITCQASQSVSSYLAWYQQKPGKAPKLLIYAASYLASGVPSRFSGSGSGTDFTLTISSLQPEDFATYYCQQGYTRTDIDNTFGGGTKVEIKRTVAAPSVFIFPPSDEQLKSGTASVVCLLNNFYPREAKVQWKVDNALQSGNSQESVTEQDSKDSTYSLSSTLTLSKADYEKHKVYACEVTHQGLSSPVTKSFNRGEC
heavy: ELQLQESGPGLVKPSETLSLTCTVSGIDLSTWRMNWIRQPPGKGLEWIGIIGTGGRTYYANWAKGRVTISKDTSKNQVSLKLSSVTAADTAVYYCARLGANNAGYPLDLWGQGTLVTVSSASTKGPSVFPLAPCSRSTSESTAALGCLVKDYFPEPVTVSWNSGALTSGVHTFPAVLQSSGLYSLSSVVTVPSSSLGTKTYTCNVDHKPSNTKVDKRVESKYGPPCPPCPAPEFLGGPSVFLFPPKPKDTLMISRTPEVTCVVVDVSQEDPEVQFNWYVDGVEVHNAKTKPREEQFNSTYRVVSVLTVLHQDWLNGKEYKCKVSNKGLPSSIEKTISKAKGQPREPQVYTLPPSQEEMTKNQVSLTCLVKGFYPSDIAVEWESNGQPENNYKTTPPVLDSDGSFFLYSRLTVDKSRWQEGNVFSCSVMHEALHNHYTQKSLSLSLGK

- Kd [9]: 590 nM
- koff [9]: 0.047 s⁻¹
- kon [9]: 79600 M⁻¹ s⁻¹
- binding result [10]: no binding (tested: 600 nM)
B6: mFab from murinised mAB1 antibody with light chain of SEQ ID No.: 58 and heavy chain of SEQ ID No.: 59 (Fab, V domains shown)
VH: QVQLKESGPGLVAPSQSLSITCTVSGIDLSTWRMNWVRQPPGKGLEWIGIIGTGGRTYYANWAKGRFSISKDSTQVFLKMNSLQTEDTATYFCARLGANNNGYPLDLWGAGTTVTVSS
VL: DVVMTQSPASLAVSLGQRATISCQASQSVSSYLAWYQQKPGQPPKLLIYAASYLASGVPSRFKGSGSGTEFTLNIHPVEEEDAATYYCQQGYTRTDIDNTFGGGTKLEIKR
notes: Fab made by ficin cleavage of the whole antibody; also called mFab from mAB1
